These results are taken from PMC2839002 (Chromosoma, 2009).

The target of one experiment is His-T7-SMN (UniProt Q16637 1-294). Briefly: pull-down.
The next experiment has as its target His-T7-SmB′ (UniProt P14678 1-240). Description: pull-down.

Sequence of His-T7-SMN (Q16637 whole entry): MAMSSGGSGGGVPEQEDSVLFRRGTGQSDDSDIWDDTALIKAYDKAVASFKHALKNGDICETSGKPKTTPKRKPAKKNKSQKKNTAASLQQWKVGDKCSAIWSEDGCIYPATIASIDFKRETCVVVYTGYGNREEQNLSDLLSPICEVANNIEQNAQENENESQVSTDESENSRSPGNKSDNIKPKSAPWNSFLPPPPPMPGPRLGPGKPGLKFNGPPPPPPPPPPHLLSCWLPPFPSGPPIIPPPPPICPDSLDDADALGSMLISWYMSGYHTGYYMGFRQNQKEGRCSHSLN

B1: GST-C214 C6D (domain or fragment, human, UniProt P38432 362-576, looked up)
chain: AGAAGWRRSGSNGGGQAPGASPSVSLPASLGRGWGREENLFSWKGAKGRGMRGRGRGRGHPVSCVVNRSTDNQRQQQLNDVVKNSSTIIQNPVETPKKDYSLLPLLAAAPQVGEKIAFKLLELTSSYSPDVSDYKEGRILSHNPETQQVDIEILSSLPALREPGKFDLVYHNENGAEVVEYAVTQESKITVFWKELIDPRLIIEDPDNEDDEEPA
For the molecule B1, the binding result with His-T7-SMN and in the experiment with His-T7-SmB′ was “binds” in each case.

B2: GST-C214 DDE (domain or fragment, human, UniProt P38432 362-576, looked up)
chain: AGAAGWRRSGSNGGGQAPGASPSVSLPASLGRGWGREENLFSWKGAKGRGMRGRGRGRGHPVSCVVNRSTDNQRQQQLNDVVKNSSTIIQNPVETPKKDYSLLPLLAAAPQVGEKIAFKLLELTSSYSPDVSDYKEGRILSHNPETQQVDIEILSSLPALREPGKFDLVYHNENGAEVVEYAVTQESKITVFWKELIDPRLIIESPSNTDDEEPA
Take B2: the binding result with His-T7-SMN and with His-T7-SmB′ was “binds” in each case.

B3: GST-C214 S489D + DDE (domain or fragment, human, UniProt P38432 362-576, looked up)
chain: AGAAGWRRSGSNGGGQAPGASPSVSLPASLGRGWGREENLFSWKGAKGRGMRGRGRGRGHPVSCVVNRSTDNQRQQQLNDVVKNSSTIIQNPVETPKKDYSLLPLLAAAPQVGEKIAFKLLELTSSYDPDVSDYKEGRILSHNPETQQVDIEILSSLPALREPGKFDLVYHNENGAEVVEYAVTQESKITVFWKELIDPRLIIESPSNTDDEEPA
For the molecule B3, the binding result with His-T7-SMN and with His-T7-SmB′ was “binds” in each case.

B4: GST-coilin DDE (natural protein)
chain: MAASETVRLRLQFDYPPPATPHCTAFWLLVDLNRCRVVTDLISLIRQRFGFSSGAFLGLYLEGGLLPPAESARLVRDNDCLRVKLEERGVAENSVVISNGDINLSLRKAKKRAFQLEEGEETEPDCKYSKKHWKSRENNNNNEKVLDLEPKAVTDQTVSKKNKRKNKATCGTVGDDNEEAKRKSPKKKEKCEYKKKAKNPKSPKVQAVKDWANQRCSSPKGSARNSLVKAKRKGSVSVCSKESPSSSSESESCDESISDGPSKVTLEARNSSEKLPTELSKEEPSTKNTTADKLAIKLGFSLTPSKGKTSGTTSSSSDSSAESDDQCLMSSSTPECAAGFLKTVGLFAGRGRPGPGLSSQTAGAAGWRRSGSNGGGQAPGASPSVSLPASLGRGWGREENLFSWKGAKGRGMRGRGRGRGHPVSCVVNRSTDNQRQQQLNDVVKNSSTIIQNPVETPKKDYSLLPLLAAAPQVGEKIAFKLLELTSSYSPDVSDYKEGRILSHNPETQQVDIEILSSLPALREPGKFDLVYHNENGAEVVEYAVTQESKITVFWKELIDPRLIIESPSNTDDEEPA
On to B4, for which the binding result in the experiment with His-T7-SmB′ is reported as “binds”.
